# Laboratory results published in US10500249B2, “Compositions and methods for preventing or treating diseases, conditions, or processes characterized by aberrant fibroblast proliferation and extracellular matrix deposition” (MOERAE MATRIX, INC., priority 2014, dated 2019).
# How the values were obtained:
# Test in all cases: Kinase Profiling Assay
# Type in all cases: biochemical
# Conditions in all cases: 100 μM
# LKB1 (h) = biological target: T1, LKB1 (h) (Homo sapiens, UniProt Q15831)
# T1 sequence (Q15831 1-433): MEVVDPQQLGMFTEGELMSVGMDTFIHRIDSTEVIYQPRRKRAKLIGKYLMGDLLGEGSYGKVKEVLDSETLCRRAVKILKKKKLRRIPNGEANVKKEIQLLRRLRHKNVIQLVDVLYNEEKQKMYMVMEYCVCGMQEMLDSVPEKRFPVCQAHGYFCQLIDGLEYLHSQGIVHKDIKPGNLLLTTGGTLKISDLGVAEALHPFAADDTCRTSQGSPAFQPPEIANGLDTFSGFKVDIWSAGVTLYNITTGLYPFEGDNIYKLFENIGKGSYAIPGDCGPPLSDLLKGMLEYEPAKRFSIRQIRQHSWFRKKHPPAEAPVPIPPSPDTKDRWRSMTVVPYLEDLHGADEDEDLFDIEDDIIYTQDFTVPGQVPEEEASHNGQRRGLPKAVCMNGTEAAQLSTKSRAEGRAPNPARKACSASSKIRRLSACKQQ
# T1 sequence (Q7RTN6 1-431 partner): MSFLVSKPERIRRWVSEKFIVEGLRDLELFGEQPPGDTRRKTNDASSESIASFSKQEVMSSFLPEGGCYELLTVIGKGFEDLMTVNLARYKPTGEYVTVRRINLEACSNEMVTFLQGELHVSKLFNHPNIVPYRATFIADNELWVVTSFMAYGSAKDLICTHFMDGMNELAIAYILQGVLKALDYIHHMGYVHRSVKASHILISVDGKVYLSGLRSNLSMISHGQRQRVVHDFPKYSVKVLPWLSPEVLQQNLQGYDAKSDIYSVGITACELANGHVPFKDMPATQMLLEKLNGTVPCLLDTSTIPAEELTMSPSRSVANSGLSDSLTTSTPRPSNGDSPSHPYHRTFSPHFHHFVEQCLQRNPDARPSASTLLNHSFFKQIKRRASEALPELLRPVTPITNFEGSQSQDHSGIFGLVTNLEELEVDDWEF
# T1 sequence (Q9Y376 1-341 partner): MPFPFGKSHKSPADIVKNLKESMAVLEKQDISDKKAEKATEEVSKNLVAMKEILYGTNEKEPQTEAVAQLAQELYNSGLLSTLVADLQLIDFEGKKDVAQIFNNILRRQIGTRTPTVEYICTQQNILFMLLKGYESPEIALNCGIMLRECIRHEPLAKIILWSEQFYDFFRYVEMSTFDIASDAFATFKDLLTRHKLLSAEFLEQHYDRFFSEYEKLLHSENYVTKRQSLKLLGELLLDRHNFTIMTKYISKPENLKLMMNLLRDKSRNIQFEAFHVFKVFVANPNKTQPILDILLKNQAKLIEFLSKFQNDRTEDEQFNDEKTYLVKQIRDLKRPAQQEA
# How it was run: (§1)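 Kinase inhibition by MK2 inhibitory peptides was profiled radiometrically, with substrate phosphorylation from labeled ATP read by scintillation after capture on a charged filter. Values are relative to 100% activity and measured in duplicate.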
# EphA2 (h) = biological target: T2, EphA2 (h) (Homo sapiens, UniProt P29317)
# T2 construct: purchased Millipore
# How it was run: as §1
# CHK1 (h) = biological target: T3, CHK1 (h) (Homo sapiens, UniProt O14757)
# T3 construct: purchased Millipore
# T3 sequence (O14757 1-476): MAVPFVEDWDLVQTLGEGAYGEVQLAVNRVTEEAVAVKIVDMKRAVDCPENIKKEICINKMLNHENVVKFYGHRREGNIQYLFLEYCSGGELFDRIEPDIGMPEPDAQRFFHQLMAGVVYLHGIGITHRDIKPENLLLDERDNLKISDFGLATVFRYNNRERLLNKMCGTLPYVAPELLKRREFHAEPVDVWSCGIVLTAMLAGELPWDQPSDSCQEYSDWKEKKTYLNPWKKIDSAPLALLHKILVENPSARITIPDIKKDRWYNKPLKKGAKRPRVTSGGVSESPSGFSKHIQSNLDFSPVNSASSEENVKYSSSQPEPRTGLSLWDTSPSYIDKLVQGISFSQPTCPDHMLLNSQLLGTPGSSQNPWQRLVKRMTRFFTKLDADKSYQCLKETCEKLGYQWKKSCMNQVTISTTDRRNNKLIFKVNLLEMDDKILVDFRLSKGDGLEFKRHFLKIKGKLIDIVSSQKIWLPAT
# How it was run: as §1
# PKCβI (h) = biological target: T4, PKCβI (h) (Homo sapiens, UniProt P05771)
# T4 construct: purchased Millipore
# T4 sequence (P05771 whole entry): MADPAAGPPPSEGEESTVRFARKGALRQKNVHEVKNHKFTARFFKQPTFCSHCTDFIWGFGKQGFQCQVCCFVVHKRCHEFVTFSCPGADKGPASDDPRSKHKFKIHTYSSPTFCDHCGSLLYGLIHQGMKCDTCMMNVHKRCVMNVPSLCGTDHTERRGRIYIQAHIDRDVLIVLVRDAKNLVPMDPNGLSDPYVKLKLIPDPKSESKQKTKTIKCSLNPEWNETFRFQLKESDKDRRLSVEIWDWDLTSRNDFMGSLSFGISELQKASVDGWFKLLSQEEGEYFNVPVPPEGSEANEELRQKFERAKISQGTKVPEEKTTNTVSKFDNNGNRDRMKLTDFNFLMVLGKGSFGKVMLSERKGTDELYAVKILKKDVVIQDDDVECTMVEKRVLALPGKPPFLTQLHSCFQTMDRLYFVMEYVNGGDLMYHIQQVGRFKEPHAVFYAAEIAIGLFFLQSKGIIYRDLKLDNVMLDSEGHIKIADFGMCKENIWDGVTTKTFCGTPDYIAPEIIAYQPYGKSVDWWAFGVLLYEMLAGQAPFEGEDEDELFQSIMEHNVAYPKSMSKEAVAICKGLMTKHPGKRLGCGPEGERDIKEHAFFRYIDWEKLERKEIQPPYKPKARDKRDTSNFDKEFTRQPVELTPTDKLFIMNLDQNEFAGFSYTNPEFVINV
# How it was run: as §1
# STK33 (h) = STK33 (h) (Homo sapiens, UniProt Q9BYT3)
# STK33 (h), sequence (Q9BYT3 whole entry): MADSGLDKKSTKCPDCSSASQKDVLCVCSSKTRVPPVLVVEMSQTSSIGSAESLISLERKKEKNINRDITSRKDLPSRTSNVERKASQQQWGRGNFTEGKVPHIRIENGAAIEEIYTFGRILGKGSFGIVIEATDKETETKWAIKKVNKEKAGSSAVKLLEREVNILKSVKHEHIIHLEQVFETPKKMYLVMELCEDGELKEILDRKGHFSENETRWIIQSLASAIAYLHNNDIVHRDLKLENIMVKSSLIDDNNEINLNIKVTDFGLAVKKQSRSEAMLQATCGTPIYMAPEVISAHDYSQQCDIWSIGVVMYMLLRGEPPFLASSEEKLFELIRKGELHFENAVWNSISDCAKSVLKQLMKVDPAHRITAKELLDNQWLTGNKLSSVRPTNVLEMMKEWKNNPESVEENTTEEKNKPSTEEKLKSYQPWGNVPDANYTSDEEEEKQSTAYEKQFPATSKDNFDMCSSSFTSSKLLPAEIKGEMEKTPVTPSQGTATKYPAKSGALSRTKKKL
# How it was run: as §1
# ULK3 (h) = biological target: T5, ULK3 (h) (Homo sapiens, UniProt Q6PHR2)
# T5 sequence (Q6PHR2 1-472): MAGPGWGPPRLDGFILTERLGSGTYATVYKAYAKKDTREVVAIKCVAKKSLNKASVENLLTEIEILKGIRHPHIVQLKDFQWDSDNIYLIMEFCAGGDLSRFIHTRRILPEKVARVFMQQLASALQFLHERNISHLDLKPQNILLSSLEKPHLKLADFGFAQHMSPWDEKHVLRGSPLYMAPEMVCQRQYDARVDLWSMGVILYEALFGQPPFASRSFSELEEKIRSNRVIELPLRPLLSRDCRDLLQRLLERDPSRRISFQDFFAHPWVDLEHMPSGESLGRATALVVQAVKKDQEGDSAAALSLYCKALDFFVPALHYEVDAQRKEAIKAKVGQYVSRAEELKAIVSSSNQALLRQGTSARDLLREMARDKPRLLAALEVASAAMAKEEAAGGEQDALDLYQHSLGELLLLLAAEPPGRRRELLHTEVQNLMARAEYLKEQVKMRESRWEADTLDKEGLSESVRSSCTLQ
# How it was run: as §1
# IR (h), activated = biological target: T6, IR (h), activated (Homo sapiens, UniProt P06213)
# T6 construct: purchased Millipore
# T6 sequence (P06213 1005-1310 limits assumed): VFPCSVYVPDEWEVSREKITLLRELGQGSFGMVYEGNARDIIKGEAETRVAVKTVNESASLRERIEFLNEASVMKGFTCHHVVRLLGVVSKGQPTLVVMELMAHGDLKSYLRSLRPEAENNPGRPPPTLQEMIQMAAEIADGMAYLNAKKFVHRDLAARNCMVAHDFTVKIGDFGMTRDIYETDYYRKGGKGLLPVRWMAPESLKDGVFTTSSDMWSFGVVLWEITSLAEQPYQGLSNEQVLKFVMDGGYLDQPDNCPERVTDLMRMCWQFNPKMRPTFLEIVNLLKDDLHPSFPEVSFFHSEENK
# How it was run: as §1
# SRPK1 (h) = SRPK1 (h) (Homo sapiens, UniProt Q96SB4)
# SRPK1 (h), sequence (Q96SB4 whole entry): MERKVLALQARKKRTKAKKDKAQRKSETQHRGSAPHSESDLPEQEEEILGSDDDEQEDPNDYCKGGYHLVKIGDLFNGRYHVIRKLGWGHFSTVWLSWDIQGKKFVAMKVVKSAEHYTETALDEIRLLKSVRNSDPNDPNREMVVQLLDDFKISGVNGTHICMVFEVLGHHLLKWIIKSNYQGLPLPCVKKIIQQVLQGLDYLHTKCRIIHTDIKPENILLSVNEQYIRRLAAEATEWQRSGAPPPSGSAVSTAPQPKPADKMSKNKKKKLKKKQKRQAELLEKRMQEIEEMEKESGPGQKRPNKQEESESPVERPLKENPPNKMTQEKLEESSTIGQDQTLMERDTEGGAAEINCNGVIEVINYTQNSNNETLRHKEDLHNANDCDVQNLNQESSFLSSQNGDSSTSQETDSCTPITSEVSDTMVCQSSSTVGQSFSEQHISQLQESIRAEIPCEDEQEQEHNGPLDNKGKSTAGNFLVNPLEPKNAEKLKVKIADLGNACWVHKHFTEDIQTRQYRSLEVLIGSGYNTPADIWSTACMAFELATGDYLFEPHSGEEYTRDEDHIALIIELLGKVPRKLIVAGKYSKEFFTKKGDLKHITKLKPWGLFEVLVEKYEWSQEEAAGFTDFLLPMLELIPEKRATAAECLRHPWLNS
# How it was run: as §1
# MSSK1 (h) = biological target: T7, MSSK1 (h) (Homo sapiens, UniProt Q9UPE1)
# T7 construct: purchased Millipore
# T7 sequence (Q9UPE1 whole entry): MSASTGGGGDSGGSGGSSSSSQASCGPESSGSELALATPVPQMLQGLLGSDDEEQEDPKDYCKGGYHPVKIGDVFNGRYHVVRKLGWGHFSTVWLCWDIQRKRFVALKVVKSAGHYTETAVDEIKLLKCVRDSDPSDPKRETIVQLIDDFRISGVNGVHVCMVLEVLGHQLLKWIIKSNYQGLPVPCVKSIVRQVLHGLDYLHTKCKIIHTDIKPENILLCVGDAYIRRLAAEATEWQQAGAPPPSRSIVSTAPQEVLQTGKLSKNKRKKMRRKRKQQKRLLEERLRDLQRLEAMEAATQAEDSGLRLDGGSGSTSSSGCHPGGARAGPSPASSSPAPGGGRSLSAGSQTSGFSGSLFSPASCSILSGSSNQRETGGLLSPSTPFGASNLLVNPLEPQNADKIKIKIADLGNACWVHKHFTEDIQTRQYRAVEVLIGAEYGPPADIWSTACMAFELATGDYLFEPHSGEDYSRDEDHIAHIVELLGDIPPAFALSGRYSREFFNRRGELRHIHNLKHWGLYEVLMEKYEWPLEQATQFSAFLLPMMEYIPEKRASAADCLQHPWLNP
# How it was run: as §1
# Rsk2 (h) = Rsk2 (h) (Homo sapiens, UniProt P51812)
# Rsk2 (h), sequence (P51812 whole entry): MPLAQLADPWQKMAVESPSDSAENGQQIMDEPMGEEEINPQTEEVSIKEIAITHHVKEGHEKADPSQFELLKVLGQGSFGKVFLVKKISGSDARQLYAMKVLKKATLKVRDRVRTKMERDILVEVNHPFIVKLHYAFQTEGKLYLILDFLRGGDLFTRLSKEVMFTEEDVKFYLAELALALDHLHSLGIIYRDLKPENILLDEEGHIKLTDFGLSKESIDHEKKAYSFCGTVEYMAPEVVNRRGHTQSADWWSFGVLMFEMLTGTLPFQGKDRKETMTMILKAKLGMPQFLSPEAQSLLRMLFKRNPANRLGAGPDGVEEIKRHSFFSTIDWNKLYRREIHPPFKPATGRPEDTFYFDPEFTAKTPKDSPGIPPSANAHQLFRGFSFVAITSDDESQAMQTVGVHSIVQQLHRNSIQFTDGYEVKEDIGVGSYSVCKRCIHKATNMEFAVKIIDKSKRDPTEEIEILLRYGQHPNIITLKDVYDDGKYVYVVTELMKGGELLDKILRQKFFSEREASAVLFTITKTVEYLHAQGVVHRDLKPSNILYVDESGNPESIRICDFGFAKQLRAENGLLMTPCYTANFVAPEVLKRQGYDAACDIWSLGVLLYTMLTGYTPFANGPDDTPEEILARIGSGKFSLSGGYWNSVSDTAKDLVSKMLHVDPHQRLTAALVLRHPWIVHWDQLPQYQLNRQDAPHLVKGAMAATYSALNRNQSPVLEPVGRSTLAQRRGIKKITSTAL
# How it was run: as §1
Sequence,% activity (LKB1 (h)) [%],% activity (EphA2 (h)) [%],% activity (CHK1 (h)) [%],% activity (PKCβI (h)) [%],% activity (STK33 (h)) [%],% activity (ULK3 (h)) [%],"% activity (IR (h), activated) [%]",% activity (SRPK1 (h)) [%],% activity (MSSK1 (h)) [%],% activity (Rsk2 (h)) [%]
FAKLAARLYRKALARQLGVAA [MMI-0300],101,31,91,78,45,167,79,90,77,51
HRRIKAWLKKIKALARQLGVAA (Mammalian) [MMI-0500],51,–,65,1,16,177,90,80,22,14
KAFAKLAARLYRKALARQLGVAA [MMI-0400],89,17,87,78,52,147,59,96,75,38
YARAAARQARAKALNRQLGVA (Mammalian) [MMI-0200],99,95,–,98,98,164,–,93,100,101
